Twelve molecules from patent US20110105394A1 (Novo Nordisk, published 2011) can be followed below.

The assay concerns the target T1, Amylin 3(a) receptor (human calcitonin receptor (CTa) with RAMP-3) (human, UniProt P30988 25-474; O60896 24-148, limits assumed).
T1 sequence (looked up) 1: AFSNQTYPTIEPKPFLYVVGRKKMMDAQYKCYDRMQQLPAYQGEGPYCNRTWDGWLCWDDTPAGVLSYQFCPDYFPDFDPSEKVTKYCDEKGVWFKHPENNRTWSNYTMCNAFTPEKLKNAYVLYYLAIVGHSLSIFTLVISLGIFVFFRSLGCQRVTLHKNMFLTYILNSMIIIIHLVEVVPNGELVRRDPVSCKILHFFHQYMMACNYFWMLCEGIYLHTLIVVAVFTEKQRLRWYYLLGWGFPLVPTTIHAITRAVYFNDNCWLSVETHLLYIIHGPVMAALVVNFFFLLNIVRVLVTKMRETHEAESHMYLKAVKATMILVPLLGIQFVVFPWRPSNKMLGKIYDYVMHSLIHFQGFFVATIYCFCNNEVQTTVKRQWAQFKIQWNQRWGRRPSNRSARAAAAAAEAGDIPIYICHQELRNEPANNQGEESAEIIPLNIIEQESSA
T1 sequence (looked up) 2: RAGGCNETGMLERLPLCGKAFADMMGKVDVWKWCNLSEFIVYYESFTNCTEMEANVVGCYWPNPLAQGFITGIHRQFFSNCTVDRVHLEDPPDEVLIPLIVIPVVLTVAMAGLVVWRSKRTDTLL
The assay can be described thus: cell-based or functional assay.

*1 amine or outer side, *2 acyl side, *3 side chain or, on linkers, in order; H or OH if unused. Bridges are numbered along the chain shown (N, C = ends). Where no end group is shown, it is not given here. Side-chain parts run from the residue outwards. The star is where a group is joined. X1 = (S)‑4‑Carboxy‑4‑(17-carboxyheptadecanoylamino)butyryl, O=C(O)CCCCCCCCCCCCCCCCC(=O)N[C@@H](CCC(=O)*)C(=O)O; C20 diacid = O=C(O)CCCCCCCCCCCCCCCCCCC(=O)*; γGlu = O=C(O)[C@H](CCC(=O)[*:2])N[*:1]; Trx = NC[C@H]1CC[C@H](C(=O)O)CC1; AEEA = NCCOCCOCC(=O)O

B1: N-alpha-[2-(2-{2-[4-(S)-Carboxy-4-(19-carboxynonadecanoylamino)butyrylamino]ethoxy}ethoxy)acetyl]-His-[His1,Arg17]-pramlintide (peptide)
peptide: {C20 diacid-γGlu-AEEA}-HHCNTATCATQRLANFLRHSSNNFGPILPPTNVGSNTY-NH2
modifications: disulfide 3-8
SMILES: CC[C@H](C)[C@H](NC(=O)[C@@H]1CCCN1C(=O)CNC(=O)[C@H](Cc1ccccc1)NC(=O)[C@H](CC(N)=O)NC(=O)[C@H](CC(N)=O)NC(=O)[C@H](CO)NC(=O)[C@H](CO)NC(=O)[C@H](Cc1c[nH]cn1)NC(=O)[C@H](CCCNC(=N)N)NC(=O)[C@H](CC(C)C)NC(=O)[C@H](Cc1ccccc1)NC(=O)[C@H](CC(N)=O)NC(=O)[C@H](C)NC(=O)[C@H](CC(C)C)NC(=O)[C@H](CCCNC(=N)N)NC(=O)[C@H](CCC(N)=O)NC(=O)[C@@H](NC(=O)[C@H](C)NC(=O)[C@@H]1CSSC[C@H](NC(=O)[C@H](Cc2c[nH]cn2)NC(=O)[C@H](Cc2c[nH]cn2)NC(=O)COCCOCCNC(=O)CC[C@H](NC(=O)CCCCCCCCCCCCCCCCCCC(=O)O)C(=O)O)C(=O)N[C@@H](CC(N)=O)C(=O)N[C@@H]([C@@H](C)O)C(=O)N[C@@H](C)C(=O)N[C@@H]([C@@H](C)O)C(=O)N1)[C@@H](C)O)C(=O)N[C@@H](CC(C)C)C(=O)N1CCC[C@H]1C(=O)N1CCC[C@H]1C(=O)N[C@H](C(=O)N[C@@H](CC(N)=O)C(=O)N[C@H](C(=O)NCC(=O)N[C@@H](CO)C(=O)N[C@@H](CC(N)=O)C(=O)N[C@H](C(=O)N[C@@H](Cc1ccc(O)cc1)C(N)=O)[C@@H](C)O)C(C)C)[C@@H](C)O
As to B1, the “Potency Luciferase” value was 0.2 nM.

Regarding {C20 diacid-4‑aminobutyryl}-CNTATCATQRLANFLHHSSNNFGPILPPTNVGSNTY-NH2 (disulfide 1-6) [N-alpha-[4-(19-Carboxynonadecanoylamino)butyryl]-[His17]-pramlintide (2-37)], the “Potency Luciferase” value stood at 0.06 nM. Next, KCK([AEEA-Glu-Glu-C20 diacid])TATCATQRLANFLHHSSDNFGPILPPTNVGSNTY-NH2 (disulfide 2-7): 0.4 nM.

B2: N-alpha-[(S)-4-Carboxy-4-(19-carboxynonadecanoylamino)butyryl]-His-[His1,Arg17]-pramlintide (peptide)
peptide: HHCNTATCATQRLANFLRHSSNNFGPILPPTNVGSNTY-NH2
modifications: disulfide 3-8; not fully specified (N-terminus); printed as N-alpha-[(S)-4-Carboxy-4-(19-carboxynonadecanoylamino)butyryl]-His-[His1,Arg17]-pramlintide
With B2, the “Potency Luciferase” value is 0.1 nM.

B3: N-alpha-[(S)-4-Carboxy-4-(17-carboxyheptadecanoylamino)butyryl]-Arg-[Arg17]-pramlintide (peptide)
peptide: X1-RKCNTATCATQRLANFLRHSSNNFGPILPPTNVGSNTY-NH2
modifications: disulfide 3-8
SMILES: CC[C@H](C)[C@H](NC(=O)[C@@H]1CCCN1C(=O)CNC(=O)[C@H](Cc1ccccc1)NC(=O)[C@H](CC(N)=O)NC(=O)[C@H](CC(N)=O)NC(=O)[C@H](CO)NC(=O)[C@H](CO)NC(=O)[C@H](Cc1c[nH]cn1)NC(=O)[C@H](CCCNC(=N)N)NC(=O)[C@H](CC(C)C)NC(=O)[C@H](Cc1ccccc1)NC(=O)[C@H](CC(N)=O)NC(=O)[C@H](C)NC(=O)[C@H](CC(C)C)NC(=O)[C@H](CCCNC(=N)N)NC(=O)[C@H](CCC(N)=O)NC(=O)[C@@H](NC(=O)[C@H](C)NC(=O)[C@@H]1CSSC[C@H](NC(=O)[C@H](CCCCN)NC(=O)[C@H](CCCNC(=N)N)NC(=O)CC[C@H](NC(=O)CCCCCCCCCCCCCCCCC(=O)O)C(=O)O)C(=O)N[C@@H](CC(N)=O)C(=O)N[C@@H]([C@@H](C)O)C(=O)N[C@@H](C)C(=O)N[C@@H]([C@@H](C)O)C(=O)N1)[C@@H](C)O)C(=O)N[C@@H](CC(C)C)C(=O)N1CCC[C@H]1C(=O)N1CCC[C@H]1C(=O)N[C@H](C(=O)N[C@@H](CC(N)=O)C(=O)N[C@H](C(=O)NCC(=O)N[C@@H](CO)C(=O)N[C@@H](CC(N)=O)C(=O)N[C@H](C(=O)N[C@@H](Cc1ccc(O)cc1)C(N)=O)[C@@H](C)O)C(C)C)[C@@H](C)O
For the molecule B3, the “Potency Luciferase” value was 0.05 nM.

As for X1-HCNTATCATQRLANFLHHSSNNFGPILPPTNVGSNTY-NH2 (disulfide 2-7) [N-alpha-[(S)-4-Carboxy-4-(17-carboxyheptadecanoylamino)butyryl]-[His1,His17]-pramlintide], the “Potency Luciferase” value was found to be 0.08 nM. As to {C20 diacid-γGlu}-HCNTATCATQRLANFLHHSSNNFGPILPPTNVGSNTY-NH2 (disulfide 2-7) [N-alpha-[(S)-4-Carboxy-4-(19-carboxynonadecanoylamino)butyryl]-[His1,His17]-pramlintide], the “Potency Luciferase” value was 0.07 nM.

B4: N-alpha-[(S)-4-Carboxy-4-(19-carboxynonadecanoylamino)butyryl]-[His1,Arg17]-pramlintide (peptide)
peptide: {C20 diacid-γGlu}-HCNTATCATQRLANFLRHSSNNFGPILPPTNVGSNTY-NH2
modifications: disulfide 2-7
SMILES: CC[C@H](C)[C@H](NC(=O)[C@@H]1CCCN1C(=O)CNC(=O)[C@H](Cc1ccccc1)NC(=O)[C@H](CC(N)=O)NC(=O)[C@H](CC(N)=O)NC(=O)[C@H](CO)NC(=O)[C@H](CO)NC(=O)[C@H](Cc1c[nH]cn1)NC(=O)[C@H](CCCNC(=N)N)NC(=O)[C@H](CC(C)C)NC(=O)[C@H](Cc1ccccc1)NC(=O)[C@H](CC(N)=O)NC(=O)[C@H](C)NC(=O)[C@H](CC(C)C)NC(=O)[C@H](CCCNC(=N)N)NC(=O)[C@H](CCC(N)=O)NC(=O)[C@@H](NC(=O)[C@H](C)NC(=O)[C@@H]1CSSC[C@H](NC(=O)[C@H](Cc2c[nH]cn2)NC(=O)CC[C@H](NC(=O)CCCCCCCCCCCCCCCCCCC(=O)O)C(=O)O)C(=O)N[C@@H](CC(N)=O)C(=O)N[C@@H]([C@@H](C)O)C(=O)N[C@@H](C)C(=O)N[C@@H]([C@@H](C)O)C(=O)N1)[C@@H](C)O)C(=O)N[C@@H](CC(C)C)C(=O)N1CCC[C@H]1C(=O)N1CCC[C@H]1C(=O)N[C@H](C(=O)N[C@@H](CC(N)=O)C(=O)N[C@H](C(=O)NCC(=O)N[C@@H](CO)C(=O)N[C@@H](CC(N)=O)C(=O)N[C@H](C(=O)N[C@@H](Cc1ccc(O)cc1)C(N)=O)[C@@H](C)O)C(C)C)[C@@H](C)O
For the molecule B4, the “Potency Luciferase” value is 0.1 nM.

B5: N-alpha-[(S)-4-Carboxy-4-(19-carboxynonadecanoylamino)butyryl]-His-[His17]-pramlintide (peptide)
peptide: HKCNTATCATQRLANFLHHSSNNFGPILPPTNVGSNTY-NH2
modifications: disulfide 3-8; not fully specified (N-terminus); printed as N-alpha-[(S)-4-Carboxy-4-(19-carboxynonadecanoylamino)butyryl]-His-[His17]-pramlintide
Turning to B5, the “Potency Luciferase” value was found to be 0.1 nM.

B6: N-alpha-[(S)-4-Carboxy-4-(19-carboxynonadecanoylamino)butyryl]-His-[His1,His17]-pramlintide (peptide)
peptide: HHCNTATCATQRLANFLHHSSNNFGPILPPTNVGSNTY-NH2
modifications: disulfide 3-8; not fully specified (N-terminus); printed as N-alpha-[(S)-4-Carboxy-4-(19-carboxynonadecanoylamino)butyryl]-His-[His1,His17]-pramlintide
Take B6: the “Potency Luciferase” value turned out to be 0.1 nM.

B7: N-alpha-[4-Carboxy-4-({4-[(19-carboxynonadecanoylamino)methyl]transcyclohexanecarbonyl}amino)butyryl]-[His1,His17]-pramlintide (peptide)
peptide: {C20 diacid-Trx-γGlu}-HCNTATCATQRLANFLHHSSNNFGPILPPTNVGSNTY-NH2
modifications: disulfide 2-7
SMILES: CC[C@H](C)[C@H](NC(=O)[C@@H]1CCCN1C(=O)CNC(=O)[C@H](Cc1ccccc1)NC(=O)[C@H](CC(N)=O)NC(=O)[C@H](CC(N)=O)NC(=O)[C@H](CO)NC(=O)[C@H](CO)NC(=O)[C@H](Cc1c[nH]cn1)NC(=O)[C@H](Cc1c[nH]cn1)NC(=O)[C@H](CC(C)C)NC(=O)[C@H](Cc1ccccc1)NC(=O)[C@H](CC(N)=O)NC(=O)[C@H](C)NC(=O)[C@H](CC(C)C)NC(=O)[C@H](CCCNC(=N)N)NC(=O)[C@H](CCC(N)=O)NC(=O)[C@@H](NC(=O)[C@H](C)NC(=O)[C@@H]1CSSC[C@H](NC(=O)[C@H](Cc2c[nH]cn2)NC(=O)CC[C@H](NC(=O)[C@H]2CC[C@H](CNC(=O)CCCCCCCCCCCCCCCCCCC(=O)O)CC2)C(=O)O)C(=O)N[C@@H](CC(N)=O)C(=O)N[C@@H]([C@@H](C)O)C(=O)N[C@@H](C)C(=O)N[C@@H]([C@@H](C)O)C(=O)N1)[C@@H](C)O)C(=O)N[C@@H](CC(C)C)C(=O)N1CCC[C@H]1C(=O)N1CCC[C@H]1C(=O)N[C@H](C(=O)N[C@@H](CC(N)=O)C(=O)N[C@H](C(=O)NCC(=O)N[C@@H](CO)C(=O)N[C@@H](CC(N)=O)C(=O)N[C@H](C(=O)N[C@@H](Cc1ccc(O)cc1)C(N)=O)[C@@H](C)O)C(C)C)[C@@H](C)O
For the molecule B7, the “Potency Luciferase” value turned out to be 0.1 nM.

B8: N-alpha-[(S)-4-Carboxy-4-(17-carboxyheptadecanoylamino)butyryl]-His-[His1,His17]-pramlintide (peptide)
peptide: X1-HHCNTATCATQRLANFLHHSSNNFGPILPPTNVGSNTY-NH2
modifications: disulfide 3-8
SMILES: CC[C@H](C)[C@H](NC(=O)[C@@H]1CCCN1C(=O)CNC(=O)[C@H](Cc1ccccc1)NC(=O)[C@H](CC(N)=O)NC(=O)[C@H](CC(N)=O)NC(=O)[C@H](CO)NC(=O)[C@H](CO)NC(=O)[C@H](Cc1c[nH]cn1)NC(=O)[C@H](Cc1c[nH]cn1)NC(=O)[C@H](CC(C)C)NC(=O)[C@H](Cc1ccccc1)NC(=O)[C@H](CC(N)=O)NC(=O)[C@H](C)NC(=O)[C@H](CC(C)C)NC(=O)[C@H](CCCNC(=N)N)NC(=O)[C@H](CCC(N)=O)NC(=O)[C@@H](NC(=O)[C@H](C)NC(=O)[C@@H]1CSSC[C@H](NC(=O)[C@H](Cc2c[nH]cn2)NC(=O)[C@H](Cc2c[nH]cn2)NC(=O)CC[C@H](NC(=O)CCCCCCCCCCCCCCCCC(=O)O)C(=O)O)C(=O)N[C@@H](CC(N)=O)C(=O)N[C@@H]([C@@H](C)O)C(=O)N[C@@H](C)C(=O)N[C@@H]([C@@H](C)O)C(=O)N1)[C@@H](C)O)C(=O)N[C@@H](CC(C)C)C(=O)N1CCC[C@H]1C(=O)N1CCC[C@H]1C(=O)N[C@H](C(=O)N[C@@H](CC(N)=O)C(=O)N[C@H](C(=O)NCC(=O)N[C@@H](CO)C(=O)N[C@@H](CC(N)=O)C(=O)N[C@H](C(=O)N[C@@H](Cc1ccc(O)cc1)C(N)=O)[C@@H](C)O)C(C)C)[C@@H](C)O
On to B8, for which the “Potency Luciferase” value amounted to 0.02 nM.
